Source: article PMC3374333 (Nature neuroscience, 2012)

Molecular target: the molecule itself
Assay: SEC

B1: GBR1bVFT (Venus Flytrap module of the extracellular domain of human GABAB receptor subunit GBR1b) (domain or fragment, UniProt Q9UBS5-2 30-459, looked up)
chain: SHSPHLPRPHSRVPPHPSSERRAVYIGALFPMSGGWPGGQACQPAVEMALEDVNSRRDILPDYELKLIHHDSKCDPGQATKYLYELLYNDPIKIILMPGCSSVSTLVAEAARMWNLIVLSYGSSSPALSNRQRFPTFFRTHPSATLHNPTRVKLFEKWGWKKIATIQQTTEVFTSTLDDLEERVKEAGIEITFRQSFFSDPAVPVKNLKRQDARIIVGLFYETEARKVFCEVYKERLFGKKYVWFLIGWYADNWFKIYDPSINCTVDEMTEAVEGHITTEIVMLNPANTRSISNMTSQEFVEKLTKRLKRHPEETGGFQEAPLAYDAIWALALALNKTSGGGGRSGVRLEDFNYNNQTITDQIYRAMNSSSFEGVSGHVVFDASGSRMAWTLIEQLQGGSYKKIGYYDSTKDDLSWSKTDKWIGGSPPAD
stoichiometry N: 2
